# Data: article doi:10.1101/720318 (bioRxiv, 2019)
# Target: BKV serotype 1 VP1 (30-297) pentamer (BK polyomavirus)
# Experiment: AlphaScreen or HTRF
binder,measurement,value
APQWMLPALLGLY [D1min L297A],binding result,binds
"APQAMLPLLLGLY (N-terminal acetyl, C-terminal amide (Ac-APQAMLPLLLGLY-NH2, printed for the NMR samples)) [D1min W293A]",binding result,binds
APQWMLPLALGLY [D1min L298A],binding result,binds
